The test concerns the target TsCC(A)-(RGG)3-GFP scaffold (Caenorhabditis elegans). The experiment in a line: integrated fluorescence intensity in condensates over whole cell, U2OS cells.

Drawing on US20250115886A1, this text covers fraction of client localized to the synthetic organelle for 1 substance.

As for “Rac1-mCherry-TsCC(B) (from UniProt P63000 1-189)”, the fraction of client localized to the synthetic organelle turned out to be 50%.
